Data from US20260146091A1 (published 2026).

T1: biotinylated mPD-1-Fc (BPS Bioscience) (mouse, UniProt Q02242 25-169, biotinylated (site not stated))
T1 chain: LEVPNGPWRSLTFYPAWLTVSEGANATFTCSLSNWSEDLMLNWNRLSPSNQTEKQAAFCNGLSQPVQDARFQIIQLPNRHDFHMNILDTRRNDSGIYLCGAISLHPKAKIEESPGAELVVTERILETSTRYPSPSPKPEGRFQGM


How the values were obtained:
[1] = target: T1, biotinylated mPD-1-Fc (BPS Bioscience); experiment: mPD-1/mPD-L1 binding inhibition
[2] = target: hPD-1-Fc (human PD-1 ectodomain fused to human IgG1 Fc, R&D) (human, UniProt Q15116 25-170); experiment: hPD-1/hPD-L1 binding inhibition
hPD-1-Fc (human PD-1 ectodomain fused to human IgG1 Fc, R&D), sequence (Q15116 25-170): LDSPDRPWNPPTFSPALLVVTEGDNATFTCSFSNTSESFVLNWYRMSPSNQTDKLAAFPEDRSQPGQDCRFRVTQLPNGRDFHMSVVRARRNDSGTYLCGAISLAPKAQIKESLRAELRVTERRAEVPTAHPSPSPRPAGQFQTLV

[3] = target: mPD-L1-Fc (mouse PD-L1 ectodomain fused to human IgG1 Fc, BioLegend) (mouse, UniProt Q9EP73 19-239); experiment: mPD-1/mPD-L1 binding inhibition
mPD-L1-Fc (mouse PD-L1 ectodomain fused to human IgG1 Fc, BioLegend), sequence (Q9EP73 19-239): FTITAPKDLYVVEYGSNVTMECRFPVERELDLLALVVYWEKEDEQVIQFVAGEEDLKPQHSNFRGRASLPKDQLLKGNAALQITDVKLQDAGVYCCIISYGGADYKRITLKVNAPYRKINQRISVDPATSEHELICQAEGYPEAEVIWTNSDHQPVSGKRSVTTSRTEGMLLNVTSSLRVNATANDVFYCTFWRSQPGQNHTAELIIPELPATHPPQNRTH

[4] = target: biotinylated hPD-L1 fused to human IgG Fc (BPS Bioscience) (human, UniProt Q9NZQ7 19-238, biotinylated (site not stated)); experiment: hPD-1/hPD-L1 binding inhibition
biotinylated hPD-L1 fused to human IgG Fc (BPS Bioscience), sequence (Q9NZQ7 19-238): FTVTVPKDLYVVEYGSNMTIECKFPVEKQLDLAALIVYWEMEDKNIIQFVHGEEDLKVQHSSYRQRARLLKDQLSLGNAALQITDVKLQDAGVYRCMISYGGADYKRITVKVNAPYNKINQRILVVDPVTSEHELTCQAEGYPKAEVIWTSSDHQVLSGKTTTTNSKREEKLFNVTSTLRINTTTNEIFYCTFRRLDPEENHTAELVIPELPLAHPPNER

IC50 [1] [nM] | IC50 [2] [nM] | IC50 [3] [nM] | IC50 [4] [nM] | Binder
1.71 | 5.85 |  |  | Nb11 (anti-PD-1 nanobody) (VHH) VHH: QVQLVQSGGGSVQAGDSLRLSCAVSGHPDSSYSMAWFRQAPGKERELVALISWSGAITHYSDSVKDRFTISRDNAKNEMYLQMDSLKPEDTAVYFCQADDPTSELNQYWGQGTQVTVSS
 |  | 6.85 | 3.34 | Nb6p (anti-PD-L1 nanobody) (VHH) VHH: EVQLVESGGGLVQAGGSLRLSCAAAGRSFNSNAMGWVRQAPGKEREIVAVISATGSYTYYEDSVKGRFTISRDNSKNTVSLQMSSLSSEDTAVYYCAGSRTAALTTIMTLFNYWGQGTQVTVSS

More lines, now with the values behind:

Binder | IC50 [1] [nM] | IC50 [2] [nM] | IC50 [3] [nM] | IC50 [4] [nM]
Nb11-Fc (Nb11 fused to mouse IgG1 Fc domain including hinge) (Fc fusion) AQVQLVQSGGGSVQAGDSLRLSCAVSGHPDSSYSMAWFRQAPGKERELVALISWSGAITHYSDSVKDRFTISRDNAKNEMYLQMDSLKPEDTAVYFCQADDPTSELNQYWGQGTQVTVSSGCKPCICTVPEVSSVFIFPPKPKDVLTITLTPKVTCVVVDISKDDPEVQFSWFVDDVEVHTAQTQPREEQFNSTFRSVSELPIMHQDWLNGKEFKCRVNSAAFPAPIEKTISKTKGRPKAPQVYTIPPPKEQMAKDKVSLTCMITDFFPEDITVEWQWNGQPAENYKNTQPIMDTDGSYFVYSKLNVQKSNWEAGNTFTCSVLHEGLHNHHTEKSLSHSPGK | 0.0439 | 0.147 |  | 
Nb6p-Fc (Nb6p fused to mouse IgG2a Fc domain including hinge) (Fc fusion) AEVQLVESGGGLVQAGGSLRLSCAAAGRSFNSNAMGWVRQAPGKEREIVAVISATGSYTYYEDSVKGRFTISRDNSKNTVSLQMSSLSSEDTAVYYCAGSRTAALTTIMTLFNYWGQGTQVTVSSPGPRGPTIKPCPPCKCPAPNLLGGPSVFIFPPKIKDVLMISLSPIVTCVVVDVSEDDPDVQISWFVNNVEVHTAQTQTHREDYNSTLRVVSALPIQHQDWMSGKEFKCKVNNKDLPAPIERTISKPKGSVRAPQVYVLPPPEEEMTKKQVTLTCMVTDFMPEDIYVEWTNNGKTELNYKNTEPVLDSDGSYFMYSKLRVEKKNWVERNSYSCSVVHEGLHNHHTTKSFSRTPGK |  |  | 0.889 | 0.498
